A short description of this data set: Stability of HRP in uric acid single reagent solution. It counts as physicochemical. Particulars: Uric Acid SR Model. Here is the method: As in Example 2 Horseradish Peroxidase (HRP) was dissolved in an aqueous base containing 50 mg/ml BSA and 10 mg/ml Tris with no pH adjustment. HRP concentration was 30 mg/ml.
EDAC and PSL solutions were formed as in Example 2 as in relative concentrations of 100 mg/ml and 20 mg/ml. The PSL solution was added in an amount of 0.14 ml per 0.5ml of HRP solution dropwise over an ice bath. This was followed by the addition of the EDAC solution in an amount of 0.05 ml per 0.5 ml of HRP solution. The mixture was stored at 4°C for 4 days and evaluated for the stability of HRP in a uric acid single reagent solution.
This is reported in Table 4 where the Control 4 is the unmodified horseradish peroxidase.

In the case of “Example 4: Horseradish Peroxidase (HRP) stabilized with PSL and EDAC”, the “%HRP of 4°C” value was found to be 100% (1 day at 4°C), 70% (1 day at 41°C), 100% (3 days at 4°C) and 35% (3 days at 41°C).

The values above are taken from patent EP0562624A2, “Stabilization of functional proteins” (Modrovich, Ivan E., priority 1992, dated 1993).
